Measured values published in patent CN112062838A (UNIV NANJING MEDICAL, dated 2020).
Several values for one entry are separate records, joined by “and”; a condition that tells them apart may be missing. Identical values can stand only once.

B1: 4D8-hFc重组蛋白 (单域抗体4D8, purified) (Fc fusion, not shown: a dimerising Fc or GST)
chain: QVQLVQSGGGLVQPGGSLRLSCAASDFDFYDYEMSWVRQAPGKALEWIGEIHHSGSTYYNPSLKSRVTISRDNSKNTLYLQMNTLRAEDTAIYYCVKDFVGADGPFVFDYWGQGTLVTVSS
B2: 4D8克隆 (4D8噬菌体, phage-displayed single-domain antibody clone) (VHH)
VHH: QVQLVQSGGGLVQPGGSLRLSCAASDFDFYDYEMSWVRQAPGKALEWIGEIHHSGSTYYNPSLKSRVTISRDNSKNTLYLQMNTLRAEDTAIYYCVKDFVGADGPFVFDYWGQGTLVTVSS
notes: also called 富集克隆4D8

Assays:
[1] = target: SARS-CoV-2 spike (D614) on pseudovirus (SARS-CoV-2, UniProt P0DTC2 14-1273); assay: cell-based or functional assay
[2] = target: T1, SARS-CoV-RBD-hFc (SARS-CoV, UniProt P59594 306-527); assay: phage ELISA, antigen coated at 5μg/ml, anti-M13 HRP detection
T1 construct: domain: RBD

| Binder | 伪病毒中和 IC50 (Luciferase活性, CHO-ACE2细胞) [1] | binding result [2] |
| --- | --- | --- |
| B1 | 1.13 μg/ml and 15 nM |  |
| B2 |  | no binding |
